Experiments:
[1] = target: Recombinant protein G; assay: optical weak value amplification (WVA) sensor; recombinant protein G (50 µg/mL, 30 min) immobilised on polydopamine on the prism, surface blocked; 10 µg/mL antibody (mouse IgG) injected at 30 µL/min for 120 min; PBS, 25 °C; reference channel with PBS subtracted; curves fitted with the intraparticle diffusion model
[2] = target: Mouse Immunoglobulin G (mouse); assay: optical weak value amplification (WVA) sensor; oriented strategy: mouse IgG captured on immobilised protein G; 30 µg/mL protein L injected until the signal was saturated (120 min); 25 °C

Substance | Kid,1 (intraparticle diffusion rate constant, surface diffusion stage) [1] | Kid,2 (intraparticle diffusion rate constant, intraparticle diffusion stage) [1] | Kid,3 (intraparticle diffusion rate constant, intraparticle diffusion stage) [1] | fold antibody immobilised, against random immobilisation on polydopamine [1] | fold binding sites, against randomly immobilised IgG [2]
Mouse Immunoglobulin G (antibody) | 454 a.u.min^−1/2 | 239 a.u.min^−1/2 | 83.9 a.u.min^−1/2 | 2.27 fold | –
Recombinant protein L | – | – | – | – | 1.59 times

Source: publication PMC12157903
